# “Also recorded” adds a separate entry of the source.
# T1: SLC2A1 pseudotyped VLPs (Homo sapiens, UniProt P11166)
# T1 sequence (P11166 1-492): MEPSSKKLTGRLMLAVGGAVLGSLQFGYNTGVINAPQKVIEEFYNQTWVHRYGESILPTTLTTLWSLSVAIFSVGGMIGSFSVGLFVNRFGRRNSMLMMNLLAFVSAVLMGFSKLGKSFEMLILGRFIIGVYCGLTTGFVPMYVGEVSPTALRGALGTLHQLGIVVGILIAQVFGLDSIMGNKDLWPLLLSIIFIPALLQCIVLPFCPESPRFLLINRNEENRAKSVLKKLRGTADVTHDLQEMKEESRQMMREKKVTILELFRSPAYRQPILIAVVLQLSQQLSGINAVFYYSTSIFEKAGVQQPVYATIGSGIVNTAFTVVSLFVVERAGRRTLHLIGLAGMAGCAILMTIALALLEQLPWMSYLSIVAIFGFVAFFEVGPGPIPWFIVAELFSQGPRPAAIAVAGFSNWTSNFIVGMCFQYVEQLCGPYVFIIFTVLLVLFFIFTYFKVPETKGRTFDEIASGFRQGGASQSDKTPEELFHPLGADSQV
# T2: SLC2A2 pseudotyped VLPs (UniProt P11168 1-524)
# T2 construct: also called SLC2A2 VLPs; GLUT2
# T2 sequence: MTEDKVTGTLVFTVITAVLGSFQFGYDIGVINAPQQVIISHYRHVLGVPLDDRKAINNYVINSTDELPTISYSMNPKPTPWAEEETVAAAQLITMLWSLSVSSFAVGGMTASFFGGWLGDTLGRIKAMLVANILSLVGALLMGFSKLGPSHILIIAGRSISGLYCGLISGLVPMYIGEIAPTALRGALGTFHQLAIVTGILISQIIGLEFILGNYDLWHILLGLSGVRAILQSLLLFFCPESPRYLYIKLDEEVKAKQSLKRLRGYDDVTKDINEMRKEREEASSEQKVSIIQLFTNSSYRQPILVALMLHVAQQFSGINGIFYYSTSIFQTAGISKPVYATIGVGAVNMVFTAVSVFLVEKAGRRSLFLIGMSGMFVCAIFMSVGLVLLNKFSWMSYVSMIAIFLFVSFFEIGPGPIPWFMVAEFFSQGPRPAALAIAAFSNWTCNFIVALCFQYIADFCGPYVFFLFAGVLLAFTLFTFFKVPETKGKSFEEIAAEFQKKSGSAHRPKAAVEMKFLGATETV
# T3: SLC2A4 pseudotyped VLPs (UniProt P14672 1-509)
# T3 construct: also called SLC2A4 VLPs; GLUT4
# T3 sequence: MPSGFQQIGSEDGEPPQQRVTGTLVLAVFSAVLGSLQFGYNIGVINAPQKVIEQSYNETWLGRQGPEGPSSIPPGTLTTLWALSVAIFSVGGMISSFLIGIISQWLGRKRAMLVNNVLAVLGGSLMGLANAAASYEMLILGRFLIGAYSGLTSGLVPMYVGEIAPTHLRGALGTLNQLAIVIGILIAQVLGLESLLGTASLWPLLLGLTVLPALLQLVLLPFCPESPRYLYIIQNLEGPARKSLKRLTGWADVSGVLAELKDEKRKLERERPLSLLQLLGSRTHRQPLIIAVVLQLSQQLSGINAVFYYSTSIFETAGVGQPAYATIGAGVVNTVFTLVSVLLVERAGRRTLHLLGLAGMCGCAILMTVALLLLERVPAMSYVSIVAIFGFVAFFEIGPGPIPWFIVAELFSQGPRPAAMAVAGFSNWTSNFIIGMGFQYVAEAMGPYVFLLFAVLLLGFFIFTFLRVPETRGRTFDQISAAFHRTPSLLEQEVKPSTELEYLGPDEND
# T4: SLC2A3 pseudotyped VLPs (UniProt P11169 1-496)
# T4 construct: also called SLC2A3 VLPs; GLUT3
# T4 sequence: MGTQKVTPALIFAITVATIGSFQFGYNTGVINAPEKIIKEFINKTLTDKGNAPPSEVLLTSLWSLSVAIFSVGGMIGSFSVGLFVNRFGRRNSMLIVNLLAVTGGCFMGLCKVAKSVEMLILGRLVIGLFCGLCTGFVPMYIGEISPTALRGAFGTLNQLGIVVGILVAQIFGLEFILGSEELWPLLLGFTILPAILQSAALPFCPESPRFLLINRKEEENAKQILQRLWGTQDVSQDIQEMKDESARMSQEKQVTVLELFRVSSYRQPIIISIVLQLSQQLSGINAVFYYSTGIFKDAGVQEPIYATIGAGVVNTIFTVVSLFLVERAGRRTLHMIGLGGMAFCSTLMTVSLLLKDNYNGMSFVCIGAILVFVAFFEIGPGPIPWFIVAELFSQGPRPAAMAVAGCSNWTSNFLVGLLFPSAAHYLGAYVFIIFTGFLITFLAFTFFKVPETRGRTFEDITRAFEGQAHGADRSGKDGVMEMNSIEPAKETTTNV
# T5: SLC2A4 pseudotyped VLPs (Homo sapiens, UniProt P14672)
# T5 sequence (P14672 1-509): T3 sequence
# B1: 2E5 #22 (antibody, V domains shown)
# VH: AVTLDESGGGLQTPGGALSLVCKASGFTFSTKGMGWVRQTPGKGLEWVAGISSMRRYTYYAPAVKGRATISRDNGQSTVRLQLSSLRAEDSGTYYCARDATYCSWTTSTCGWSGGTIDAWGHGTEVIVSS
# VL: ALTQPSSVSANLGGTVKITCSGGSGNYGWYQQKSPGSVPVTVIYSNDKRPSDIPSRFSGSGSGSTATLTITGVQVEDEAVYFCGSRDSSYVGLFGAGTTLTVL
# B2: 6F12 #33 (antibody, V domains shown)
# VH: AVTLDESGGGLQTPGGALSLVCKASGFTFSDHAIFWVRQAPDKGLEFVAAISSGTGSWTAYATVVKGRATISRDNGQSTVRLQLNNLRAADTATYYCAKGAGSACCYAGSIDAWGHGTEVIVSS
# VL: ALTQPSSVSANPGETVKITCSGGSSSSYYGWYQQKSPGSAPVTLIYYNDKRPSDIPSRFSGSKSGSTATLTITGVQVEDEAVYYCGTGDGSFAIFGAGTTLTVL
# Key:
# [1] = target: T1, SLC2A1 pseudotyped VLPs; experiment: ELISA-based SLC2A1 VLP binding assay; conditions: 5 μg/mL VLP coating, FIG. 1
# Procedure: (§1) An ELISA-based VLP binding assay was carried out to compare the EC50 values of antibody clones (FIG. 1). Similarly, ELISA based VLP binding assay was performed to compare the binding of the antibodies to different glucose transporters (FIG. 3). MaxiSorp™ high-capacity binding ELISA plate (Thermo Fisher Scientific, US) were coated with 5 μg/mL SLC2A1, SLC2A2, SLC2A3, SLC2A4 pseudotyped VLPs or MOCK VLPs in PBS overnight. The plate was washed and blocked for 1 h with 0.05% Tween 20, 2% BSA in PBS. Serial dilutions of antibodies were incubated on a washed plate for 1 hour, followed by a 1-hour incubation with goat anti-human IgG horse radish peroxidase (HRP) conjugated (Invitrogen) antibody. TMB (3,3′,5,5′-Tetramethylbenzidine) Solution VII (Biopanda Diagnostics) was used as a substrate for HRP and 0.5 M H2SO4 was used as stop solution. After every step, the wells were washed with 0.05% Tween 20, 0.1% Proclin 300 PBS solution. Absorption at 450 nm was measured with Thermo Scientific™ Multiskan™ FC Microplate Photometer. Exemplary wise used antibodies 1G2 #9, 2A2 #12, 2E5 #22, 5G5 #30, 6F12 #33, 7C3 #39 all bound SLC2A1 VLPs with low nanomolar EC50 values (FIG. 1).
# [2] = target: T2, SLC2A2 pseudotyped VLPs; experiment: ELISA on VLPs coated at 5 ug/mL, compared with MOCK VLPs
# [3] = target: T3, SLC2A4 pseudotyped VLPs; experiment: as above
# [4] = target: T4, SLC2A3 pseudotyped VLPs; experiment: as above
# [5] = target: T5, SLC2A4 pseudotyped VLPs; experiment: ELISA-based VLP binding assay, SLC2A4; conditions: compared to MOCK VLPs, FIG. 3
# Procedure: as §1
Molecule,EC50 of binding to SLC2A1 VLPs [1],binding result [2],binding result [3],binding result [4],binding to SLC2A4 VLPs [5]
B1,low nanomolar,no binding,no binding,no binding,did not bind; also recorded: Some binding
B2,low nanomolar,no binding,no binding,no binding,did not bind

# From patent US20260167712A1, “INHIBITORY ANTIBODIES AGAINST GLUT1” (ICOSAGEN CELL FACTORY OÜ, priority 2022, published 2026)
